Assay results published in paper PMC10833452 (2023).
Read-outs that look alike come from different tables or passages of the source.

Assays:
Experiment in all cases: SPR
WT-RBD [1] = target: WT-RBD
WT-RBD [2] = target: WT-RBD; remark: listed apart in the source
WT-RBD [3] = target: WT-RBD; remark: listed apart in the source

Row | Binder | Kd (WT-RBD [1]) [nM] | Kd (WT-RBD [2]) [nM] | Kd (WT-RBD [3]) [nM]
1 | 3E2 monoclonal antibody (mouse IgG) (antibody, V domains shown) VH: EVMLVESGGGVVKPGGSLKLSCAASGFSFSTYAMSWIRQTPEKSLEWVAAISSGGTNTYYPGSVKGRFTISRDKAMNTLYLQLSSLRSEDTAMYYCVRHSGNYVDSVMDYWGQGTSVTVSS VL: QIVLTQSPAIMSASLGEEITLTCSVSSSVSDMHWYQQKSGTSPKVFIYSTSNLASGVPSRFSGSGSGTFYSLTISSVEAEDAAYYYCHQWSSWTFGGGTKLEIK | 0.004 | 0.00354 | –
2 | 8H12 monoclonal antibody (mouse IgG) (antibody, V domains shown) VH: EVKLEESGGGLVQPGGSMKLSCAASGFTFSDAWMDWVRQSPEKGLEWVAQIRRKANNHATYYAESVKGRFTISRDDSKSSVYLQMNSLRAEDTGIYYCIRGMTYAMDFWGQGTSVTVSS VL: DIVMTQFQKFMSTSVGDRVSITCKASQNVRTAVAWYQQKPGQSPKAMIYLASNRHRGVPDRFTGSGCGTDFTLTISNVQCEDLADYFCLQHRNYPLTFGGGTKLEIK | 0.4 | – | 0.398
